From patent US20120090043A1, “TARGETS FOR RETROVIRUS ASSOCIATED DISEASES” (priority 2009, published 2012)

Test system: HTLV-1 LTR promoter transactivation by HTLV-1 Tax
Assay: Transactivation assay, HTLV-1 LTR luciferase reporter with HTLV-1 Tax
Assay type: cell-based
Conditions: HEK293 cells co-transfected with pHTLV1LTR-Luc, HTLV-1 Tax and the human ORF; relative luciferase activity 24 h post-transfection; positive if >=2 or <=0.5 and p<0.05
Source text: Twenty-four hours post-transfection, cells were washed three times with PBS, lysed and luciferase activities determined from two independent transfection experiments in triplicate. We computed a paired t-test to assess the difference of the means between samples with and without the human interactor. For a trial to be considered positive, the relative luciferase activities has to be >=2 or <=0.5, and the p-value of the t-test<0.05.
Expression vectors encoding human ORFs and HIV-1 Tat or HTLV-1 Tax proteins were tested in a transactivation reporter assay against reporter plasmids harboring HIV-1 or HTLV-1 viral promoter sequences cloned upstream of the luciferase reporter gene. […] Wherever not expressly specified, constructs used herein were generally made by sub-cloning entry clones from the ORFeome V3.1 into suitable destination vectors.

| Molecule | HTLV_LTR transactiv. [fold change] |
| --- | --- |
| FLJ10726: human host interactor protein, Gene ID 55216, expressed from transfected ORF vector (protein) MSRIPLGKVLLRNVIRHTDAHNKIQEESDMWKIRELEKQMEDAYRGTKRKMLPSSSSRMRSDGFDEESQRYYWRPKNEISGTLEDDFLKAKSWNKKFYDYEANMPDRWGHSGYKELYPEEFETDSDQQDITNGKKTSPQVKSSTHESRKHKKSKKSHKKKQKKRSHKKQKKSKKEATDITADSSSEFSEETGASGTRKGKQPHKRKKKSRKKSLKKPALFLEAESNTSHSDDSASSSSEESEERDTKKTKRKKREKKAHTSVANNEIQERTNKRTNWKVATDERSAESSEDD | 0.19 |
| KIAA1949: human host interactor protein, Gene ID 170954, expressed from transfected ORF vector (protein) MATIPDWKLQLLARRRQEEASVRGREKAERERLSQMPAWKRGLLERRRAKLGLSPGEPSPVLGTVEAGPPDPDESAVLLEAIGPVHQNRFIRQERQQQQQQQQRSEELLAERKPGPLEARERRPSPGEMRDQSPKGRESREERLSPRETRERRLGIGGAQELSLRPLEARDWRQSPGEVGDRSSRLSEAWKWRLSPGETPERSLRLAESREQSPRRKEVESRLSPGESAYQKLGLTEAHKWRPDSRESQEQSLVQLEATEWRLRSGEERQDYSEECGRKEEWPVPGVAPKETAELSETLTREAQGNSSAGVEAAEQRPVEDGERGMKPTEGWKWTLNSGKAREWTPRDIEAQTQKPEPPESAEKLLESPGVEAGEGEAEKEEAGAQGRPLRALQNCCSVPSPLPPEDAGTGGLRQQEEEAVELQPPPPAPLSPPPPAPTAPQPPGDPLMSRLFYGVKAGPGVGAPRRSGHTFTVNPRRSVPPATPATPTSPATVDAAVPGAGKKRYPTAEEILVLGGYLRLSRSCLAKGSPERHHKQLKISFSETALETTYQYPSESSVLEELGPEPEVPSAPNPPAAQPDDEEDEEELLLLQPELQGGLRTKALIVDESCRR | 0.35 |
| CCDC24: human host interactor protein, Gene ID 149473, expressed from transfected ORF vector (protein) MLRHSPSLWELVEEHVPLRERREVKRILGEAAVDLSLELRAEVAMLRALLQEARSSQAPSSRPISDPSSLLAPPPLLKDLLRQELRQLLQGLRHKAICEGRDQAQAWVQYSPRVLHFALEEPRCDLPEQEIFQMRGGGPSSGHRDLSIIKDQLNVSNIDQVARHLRGLLEEECHTLEREILILQRCLEEEYLRPCHPSEAALEPTLAELKEQKKAMEQELQASVGPSCVSPNHRQRPLGSSTQGLRPPLPLCGVAPLQCCLPAPPLEPYLRPRGQSATHRWGRQLQCSPREGPASTPMSSAAPQAPA | 2.88 |
| HSFY1: human host interactor protein, Gene ID 86614, expressed from transfected ORF vector (protein) MAHVSSETQDVSPKDELTASEASTRSPLCEHTFPGDSDLRSMIEEHAFQVLSQGSLLESPSYTVCVSEPDKDDDFLSLNFPRKLWKIVESDQFKSISWDENGTCIVINEELFKKEILETKAPYRIFQTDAIKSFVRQLNLYGFSKIQQNFQRSAFLATFLSEEKESSVLSKLKFYYNPNFKRGYPQLLVRVKRRIGVKNASPISTLFNEDFNKKHFRAGANMENHNSALAAEASEESLFSASKNLNMPLTRESSVRQIIANSSVPIRSGFPPPSPSTSVGPSEQIATDQHAILNQLTTIHMHSHSTYMQARGHIVNFITTTTSQYHIISPLQNGYFGLTVEPSAVPTRYPLVSVNEAPYRNMLPAGNPWLQMPTIADRSAAPHSRLALQPSPLDKYHPNYN | 0.43 |
| DAZAP2: human host interactor protein, Gene ID 9802, expressed from transfected ORF vector (protein) MNSKGQYPTQPTYPVQPPGNPVYPQTLHLPQAPPYTDAPPAYSELYRPSFVHPGAATVPTMSAAFPGASLYLPMAQSVAVGPLGSTIPMAYYPVGPIYPPGSTVLVEGGYDAGARFGAGATAGNIPPPPPGCPPNAAQLAVMQGANVLVTQRKGNFFMGGSDGGYTIW | 3.31 |
| C1orf94: human host interactor protein, Gene ID 84970, expressed from transfected ORF vector (protein) MRGGGGCVLALGGQRGFQKERRRMASGNGLPSSSALVAKGPCALGPFPRYIWIHQDTPQDSLDKTCHEIWKRVQGLPEASQPWTSMEQLSVPVVGTLRGNELSFQEEALELSSGKDEISLLVEQEFLSLTKEHSILVEESSGELEVPGSSPEGTRELAPCILAPPLVAGSNERPRASIIVGDKLLKQKVAMPVISSRQDCDSATSTVTDILCAAEVKSSKGTEDRGRILGDSNLQVSKLLSQFPLKSTETSKVPDNKNVLDKTRVTKDFLQDNLFSGPGPKEPTGLSPFLLLPPRPPPARPDKLPELPAQKRQLPVFAKICSKPKADPAVERHHLMEWSPGTKEPKKGQGSLFLSQWPQSQKDACGEEGCCDAVGTASLTLPPKKPTCPAEKNLLYEFLGATKNPSGQPRLRNKVEVDGPELKFNAPVTVADKNNPKYTGNVFTPHFPTAMTSATLNQPLWLNLNYPPPPVFTNHSTFLQYQGLYPQQAARMPYQQALHPQLGCYSQQVMPYNPQQMGQQIFRSSYTPLLSYIPFVQPNYPYPQRTPPKMSANPRDPPLMAGDGPQYLFPQGYGFGSTSGGPLMHSPYFSSSGNGINF | 0.41 |
| FATE1: human host interactor protein, Gene ID 89885, expressed from transfected ORF vector (protein) MAGGPPNTKAEMEMSLAEELNHGRQGENQEHLVIAEMMELGSRSRGASQKKQKLEQKAAGSASAKRVWNMTATRPKKMGSQLPKPRMLRESGHGDAHLQEYAGNFQGIRFHYDRNPGTDAVAQTSLEEFNVLEMEVMRRQLYAVNRRLRALEEQGATWRHRETLIIAVLVSASIANLWLWMNQ | 0.49 |
| DIPA: human host interactor protein, Gene ID 11007, expressed from transfected ORF vector (protein) MEAEAGGLEELTDEEMAALGKEELVRRLRREEAARLAALVQRGRLMQEVNRQLQGHLGEIRELKQLNRRLQAENRELRDLCCFLDSERQRGRRAARQWQLFGTQASRAVREDLGGCWQKLAELEGRQEELLRENLALKELCLALGEEWGPRGGPSGAGGSGAGPAPELALPPCGPRDLGDGSSSTGSVGSPDQLPLACSPDD | 0.28 |
| DHRS10: human host interactor protein, Gene ID 51171, expressed from transfected ORF vector (protein) MATGTRYAGKVVVVTGGGRGIGAGIVRAFVNSGARVVICDKDESGGRALEQELPGAVFILCDVTQEDDVKTLVSETIRRFGRLDCVVNNAGHHPPPQRPEETSAQGFRQLLELNLLGTYTLTKLALPYLRKSQGNVINISSLVGAIGQAQAVPYVATKGAVTAMTKALALDESPYGVRVNCISPGNIWTPLWEELAALMPDPRATIREGMLAQPLGRMGQPAEVGAAAVFLASEANFCTGIELLVTGGAELGYGCKASRSTPVDAPDIPS | 0.41 |
| DGCR6L: human host interactor protein, Gene ID 85359, expressed from transfected ORF vector (protein) MERYAAALEEVADGARQQERHYQLLSALQSLVKELPSSFQQRLSYTTLSDLALALLDGTVFEIVQGLLEIQHLTEKSLYNQRLRLQNEHRVLRQALRQKHQEAQQACRPHNLPVVQAAQQRELEAVEHRIREEQRAMDQKIILELDRKVADQQSTLEKAGVAGFYVTTNPQELMLQMNLLELIRKLQQRGCRAGNAALGLGGPWQSPAAQCDQKGSPVPP | 0.24 |
| FLJ22471: human host interactor protein, Gene ID 80212, expressed from transfected ORF vector (protein) MTSPHFSSYDEGPLDVSMAATNLENQLHSAQKNLLFLQREHASTLKGLHSEIRRLQQHCTDLTYELTVKSSEQTGDGTSKSSELKKRCEELEAQLKVKENENAELLKELEQKNAMITVLENTIKEREKKYLEELKAKSHKLTLLSSELEQRASTIAYLTSQLHAAKKKLMSSSGTSDASPSGSPVLASYKPAPPKDKLPETPRRRMKKSLSAPLHPEFEEVYRFGAESRKLLLREPVDAMPDPTPFLLARESAEVHLIKERPLVIPPIASDRSGEQHSPAREKPHKAHVGVAHRIHHATPPQAQPEVKTLAVDQVNGGKVVRKHSGTDRTV | 2.25 |
